Data: the supplement of paper PMC10567573
± gives the standard deviation.

Experiment: protein stability index of a GFP-peptide fusion (GPS, HEK-293T) (PSI 1-6); higher = more stable
Settings: c terminus: a fixed tail appended
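Note: 24-mer peptide tiles fused after GFP, lentivirally expressed, FACS-sorted into six equal bins by GFP/DsRed ratio, decoded by Illumina sequencing, PSI is the read-weighted mean bin number.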

Row | Sequence | protein stability index (treatment: DMSO) | protein stability index (treatment: MLN4924 1 uM, 8 h)
1 | GPLLGTNGATDDSKTNLIVNYLPQ [ELAVL3] | 3.84 ± 0.3 | 3.92 ± 0.24
2 | CPGLRLPGSLAGRRAGPAIWAQGW [AUH] | 2.83 ± 0.15 | 1.82 ± 0.35
3 | KAKRNRTCRPPSSSESSSDSDNSG [ANKRD17] | 5.64 ± 0.27 | 5.43 ± 0.2
4 | VTYMNMTAYNKGRLQSSFWIVDKQ [PLD5] | 2.39 ± 0.6 | 2.33 ± 0.39
5 | APSEGSAEAAPELDLFAMKPPETS [SNAP91] | 5.39 ± 0.23 | 5.47 ± 0.19
6 | LDPHFVPTELWPQEAVPLGLGLED [TEX19] | 5.13 ± 0.3 | 4.91 ± 0.17
7 | MNTEAEQQLLHHARNGNAEEVRQL [OSBPL1A] | 5.24 ± 0.28 | 5.47 ± 0.12
8 | AKDYADSIHAIFVETSAKNAININ [RAB22A] | 2.59 ± 0.27 | 2.48 ± 0.34
9 | AMKSVHENMDLNKIDDLMQEITEQ [CHMP4C] | 4.7 ± 0.16 | 4.85 ± 0.52
10 | HRNQCQYCRLKKCLKVGMRREAVQ [NR2F2] | 2.39 ± 0.47 | 2.57 ± 0.57
11 | LLSIGPELPKPEVISQLEQGTELW [ZNF8] | 4.19 ± 0.28 | 3.54 ± 0.099
12 | ALRMATWNQILDPWVYILLRKAVL [PTGFR] | 2.98 ± 0.68 | 2.43 ± 0.41
13 | TYRKVMNWKETLVFPPEVPISEKA [STK38L] | 3.09 ± 0.29 | 3.24 ± 0.29
14 | LTDVSPEPLQALLERASATLQDLV [PRAME] | 3.05 ± 0.16 | 3.33 ± 0.6
15 | YSIPEELEKGSFVGNISKDLGLAP [PCDHGA10] | 3.59 ± 0.4 | 3.7 ± 0.29
16 | IAIPEWFLSENATVAAETRAVIAW [CPXM2] | 2.24 ± 0.25 | 2.08 ± 0.14
17 | PSAAQTLRSFCAWQRGLNTPEDSD [ADAMTS4] | 4.29 ± 0.25 | 4.53 ± 0.17
18 | QKNKKILKSAKDLPPDALIIEYRG [KMT2E] | 2.82 ± 0.43 | 3.07 ± 0.37
19 | RNKESPVFAPVYFPEELHRKAALE [HMOX1] | 4.11 ± 0.4 | 4.147 ± 0.023
20 | DEPVCGRPLGIRAGPNGTLFVADA [APMAP] | 3.83 ± 0.22 | 4.03 ± 0.27
21 | YIRCQKEVGKSFERHKLKRQDADA [SMG5] | 3.46 ± 0.53 | 3.43 ± 0.23
22 | DTAHDFRAKCRNMEHALREKAKAF [TRIM35] | 3.18 ± 0.25 | 3.43 ± 0.23
23 | DNARLAADDFRTKYEHELALRQTV [KRT16] | 4.01 ± 0.17 | 4.11 ± 0.26

Row | Sequence | protein stability index (treatment: DMSO) | protein stability index (treatment: MLN4924 1 uM, 8 h)
24 | TQVKVVKFSYMWTINNFSFCREEM [SPOPL] | 2.65 ± 0.92 | 2.77 ± 0.72
25 | WAAKAPGASSREEPPEEPEQCPVI [SPDEF] | 5.28 ± 0.31 | 5.27 ± 0.2
26 | SKDCKPPVYLLLELEDKDGLQSAQ [MYBL2] | 3.93 ± 0.18 | 3.87 ± 0.12
27 | ATNPHVKPPYSYATLICMAMQASK [FOXJ1] | 2.29 ± 0.32 | 2.36 ± 0.064
28 | GSGTIDFEEFLVMMVRQMKEDAKG [TNNC2] | 3.25 ± 0.88 | 3.88 ± 0.8
29 | FIMLSCVQLQRIPLSAVYRICLGK [TPRG1] | 3.06 ± 0.75 | 2.01 ± 0.43
30 | PDREKGFHLDVEDYLSGVLILASE [TSN] | 2.14 ± 0.1 | 2.81 ± 0.2
31 | GRRAALYVHWPYCEKRCSYCNFNK [RSAD1] | 2.23 ± 0.45 | 2.96 ± 0.55
32 | EAPSTASSTPDSTEGGNDDSDFRE [RTN2] | 5.57 ± 0.35 | 5.63 ± 0.23
33 | PEGGLEEPDALDDSLTSLQWLQEF [FOXJ1] | 4.64 ± 0.17 | 4.53 ± 0.3
34 | NLSSRWKNWWVRGILTLAMIAFFF [CDS2] | 4.15 ± 0.14 | 4.04 ± 0.15
35 | SRSNNMGIVGGFTQMIREGGARSL [SLC25A25] | 3.17 ± 0.27 | 3.47 ± 0.18
36 | SYDELCFLEQRPQSPTLEFLLRNS [EDARADD] | 3.1 ± 0.2 | 3 ± 0.1
37 | QGQPDPAPRPGPPAGTPPPTARHF [MOSPD3] | 3.77 ± 0.21 | 3.65 ± 1.1
38 | VFITYSMDTAMEVVKFVNFLLVNG [TRAF3IP2] | 3.39 ± 0.062 | 2.06 ± 0.64
39 | KTYHYLYLAMLERFQDGDNILEKE [FEM1B] | 2.03 ± 0.37 | 2.35 ± 0.2
40 | MEVLAAETTSQQERLQAIAEKRKR [PALM] | 5.15 ± 0.27 | 5.23 ± 0.32
41 | NHRLISEILSESVVPDVRSVVTTA [SMARCE1] | 3.31 ± 0.26 | 3.17 ± 0.56
42 | LGPCVVGYGIYYFIYSTWKGRTIY [SAT2] | 2.97 ± 0.28 | 2.97 ± 0.51
43 | RMQYAPDLMKRLRFALIPAPELVE [KLHL14] | 2.25 ± 0.1 | 2.05 ± 0.088
44 | LNFKAEPESETSILLSWTPPRSDT [PTPRD] | 3.3 ± 0.36 | 3.45 ± 0.28
45 | IVTWFMLLYAQGLLAIQFLEFFYG [SLC19A2] | 3.28 ± 0.52 | 3.18 ± 0.46
46 | GLPPSGSWQDLKDHMREAGDVCYA [SRSF1] | 3.65 ± 0.25 | 3.83 ± 0.48

Row | Sequence | protein stability index (treatment: DMSO) | protein stability index (treatment: MLN4924 1 uM, 8 h)
47 | FTEYQASAFGNVKLVVHDCPVWDI [RHOBTB3] | 2.54 ± 0.72 | 2.46 ± 0.41
48 | VKRLLRSDAEAVSTRWEVIAEDGT [TAF7L] | 3.69 ± 0.3 | 3.73 ± 0.64
49 | GKRRKDEISVDSLDFSKKILHTAW [PPP2R2B] | 2.34 ± 0.2 | 2.52 ± 0.049
50 | VDRWPAPVPGKTLHLPIMGVVMKV [DENND6A] | 2.63 ± 0.39 | 2.4 ± 0.36
51 | SKAWHQKSHFQNSREWSGKEKWWD [PBXIP1] | 2.94 ± 0.04 | 3.2 ± 0.34
52 | CLRVGMLKEGVRLDRVRGGRQKYK [ESRRA] | 3.12 ± 0.24 | 3.42 ± 0.46
53 | GPDTQDLEGQSPPQSLPSTPKAAW [PBXIP1] | 5.2 ± 0.28 | 5.07 ± 0.18
54 | GDRMFYRDWWNSTSFSNYYRTWNV [SOAT2] | 2.19 ± 0.16 | 2.28 ± 0.39
55 | REVRRAQARLLNPSATRAKPGPQD [NOP53] | 4.75 ± 0.28 | 4.66 ± 0.14
56 | STKMDCVWSNWKSQAIDLLYWRDI [RTN1] | 2.37 ± 0.34 | 2.27 ± 0.28
57 | AMAAAEGSSGPAGLTLGRSFSNYR [SEPHS2] | 3.82 ± 0.16 | 3.63 ± 0.23
58 | RPNDDSLAFLDKIKSVKESLQESV [IQUB] | 3.64 ± 0.034 | 3.34 ± 0.32
59 | FALQSDLDQPAFQQLVSFSESGSL [ISL2] | 2.91 ± 0.37 | 3.03 ± 0.3
60 | TPAEGDTEEDDGFVDILESDLKDD [CDC25B] | 5.34 ± 0.3 | 5.62 ± 0.24
61 | FSQLYLYSFISLFIYMVLSLFIAL [MCOLN1] | 3.28 ± 0.21 | 3.24 ± 0.21
62 | AVNRARRPLARPIKPNEILPPEKG [RHOBTB2] | 4.24 ± 0.12 | 4.27 ± 0.12
63 | HDKIRPISSIGQVQSYMEHYCNSS [SPACA9] | 3.6 ± 0.4 | 3.72 ± 0.18
64 | EVEELDNWQPAVPLMHMLHLSGAL [SPATS1] | 2.18 ± 0.27 | 2.16 ± 0.35
65 | DFPEDGLKIFTEDLPEVESLPRDR [VPS39] | 5.31 ± 0.31 | 5.39 ± 0.068
66 | QLNGTANDTAGPELPDPLGGLLDE [NFE2L1] | 5.11 ± 0.32 | 5.37 ± 0.32
67 | EVEAKFKRYESHPVCADLQAKILQ [CHCHD3] | 3.66 ± 0.21 | 3.58 ± 0.078
68 | YQNHKITQLKIENNPFAKGFRGSD [TBX5] | 2.96 ± 0.5 | 3.55 ± 0.61
69 | SGFWGVARHFNYVGDLMGSLAYCL [DHCR7] | 2.11 ± 0.48 | 2.07 ± 0.11

Row | Sequence | protein stability index (treatment: DMSO) | protein stability index (treatment: MLN4924 1 uM, 8 h)
70 | GDDAPKEEVDTGAVNLIESGACGA [INTS4] | 5.5 ± 0.25 | 5.36 ± 0.18
71 | EDEEPQEPNRLETGEAGEELDLRL [RTN2] | 5.73 ± 0.12 | 5.52 ± 0.4
72 | LESLRTAQKTALLQDGRRKVHYLF [DPCD] | 2.19 ± 0.22 | 2.45 ± 0.37
73 | ESSSRGEAGAPGEEDIQGPTKADT [CHGB] | 5.64 ± 0.29 | 5.43 ± 0.32
74 | QEEMAEDPLTYKSRLMVVVKMDSS [RHOBTB2] | 3.45 ± 0.27 | 3.49 ± 0.24
75 | RKRIRTYLKSCRRMKKNGMEMTRP [NOL4L] | 3.28 ± 0.21 | 3.32 ± 0.22
76 | RLDLAAVTLRRGLRSRASRCRPRS [FAM189A2] | 3.7 ± 0.15 | 3.89 ± 0.32
77 | AHVGMELQLKQELAMLNAVTEDLR [SCARA5] | 3.27 ± 0.27 | 3.16 ± 0.45
78 | SLDKRQGEGLRIYWGSPEEQSLLS [TPRG1] | 2.77 ± 0.15 | 2.85 ± 0.39
79 | NPTQNVRTILLSVISLLNEPNTFS [CDC34] | 2.86 ± 0.54 | 2.95 ± 0.61
80 | LLPDGRHAVVEVEDVPLAAKLVDL [TAF7L] | 4.28 ± 0.3 | 4.22 ± 0.18
81 | RKVCVGGKRRKDEISVDSLDFSKK [PPP2R2B] | 4.33 ± 0.26 | 4.31 ± 0.27
82 | MAKFVIRPATAADCSDILRLIKEL [SAT1] | 2.04 ± 0.16 | 2.22 ± 0.22
83 | EAYTEHRPEITSRAINLLFDIARI [ZER1] | 2.14 ± 0.18 | 2.01 ± 0.21
84 | SDTPYDSSASYEKENEMMKSHVMD [IKZF1] | 5.2 ± 0.31 | 5.13 ± 0.2
85 | DEKINIYCLTCEVPTCSMCKVFGI [TRIM63] | 2.43 ± 0.14 | 2.45 ± 0.32
86 | VAAAAAATTAATAAATTTTTTSAA [SNAP91] | 5.39 ± 0.13 | 5.34 ± 0.068
87 | YHCPGSPDHQVPYGHDYPRAAYQQ [TRAF3IP2] | 3.13 ± 0.45 | 3.5 ± 0.28
88 | EEELQEIASEPTNKHLFYAEDFST [MATN2] | 5.26 ± 0.41 | 5.21 ± 0.32
89 | KEERKTEVVMNSQQTPVGTPKDKR [PALM] | 5.43 ± 0.32 | 5.36 ± 0.32
